Data as given in PMC12728182, “Hierarchical folding-upon-binding of an intrinsically disordered protein” (Nature Communications, 2025).

Columns and labels:
Details in all cases: both partners purified
[1] = biological target: T1, Human Rac1 (residues 1-177), GMPPNP-loaded (human, UniProt P63000 1-177); experiment: ITC; POSH_(315-380) (1000 uM) titrated into GMPPNP-loaded Rac1 (125 uM), 35 °C, 50 mM HEPES pH 6.9, 150 mM NaCl, 5 mM MgCl2, 2 mM TCEP; model 'One set of sites'; duplicates
[2] = biological target: T1, Human Rac1 (residues 1-177), …; experiment: ITC; Kd at 25 °C not measured directly (binding enthalpy close to 0); estimated through linear extrapolation of the Gibbs free energy measured by ITC at 5, 10, 15 and 35 °C; same buffer
[3] = biological target: T1, Human Rac1 (residues 1-177), …; experiment: NMR 15N CEST; 15N POSH_(315-380) (500 uM) with 20% molar ratio of Rac1 (100 uM), 950 MHz, four B1 fields (5.2, 10.3, 20.5, 68.6 Hz); global fit with a linear 4-site exchange model (ChemEx), total bound population fixed from Kd = 24 uM at 25 °C

B1: POSH_(315-380), shorter construct of human POSH comprising MRE1 and MRE2 (domain or fragment)
chain: GHMWSQASQNRHSMEISPPVLISSSNPTAAARISELSGLSCSAPSQVHISTTGLIVTPPPSSPVTTGPSF
Q: What does the source list for B1?
A: Kd [1]: 21 to 46 µM; Kd [2]: 24 µM; kAB (intermediate A to B, folding of the MRE1 helix on Rac1, 4-site model) [3]: 72 s⁻¹; kBC (intermediate B to final complex C, folding of MRE2 on Rac1, 4-site model) [3]: 89 s⁻¹
